According to patent publication US20240358834A1 (University of Pennsylvania, published 2024):

T1: human CD19 protein with a biotinylated AviTag (Acrobiosystems) (human, UniProt P15391 20-291, biotinylated AviTag)
T1 construct: Captured on streptavidin-coated microplate wells; also called biotinylated-AviTag-CD19; hCD19; not shown: AviTag
T1 sequence (looked up): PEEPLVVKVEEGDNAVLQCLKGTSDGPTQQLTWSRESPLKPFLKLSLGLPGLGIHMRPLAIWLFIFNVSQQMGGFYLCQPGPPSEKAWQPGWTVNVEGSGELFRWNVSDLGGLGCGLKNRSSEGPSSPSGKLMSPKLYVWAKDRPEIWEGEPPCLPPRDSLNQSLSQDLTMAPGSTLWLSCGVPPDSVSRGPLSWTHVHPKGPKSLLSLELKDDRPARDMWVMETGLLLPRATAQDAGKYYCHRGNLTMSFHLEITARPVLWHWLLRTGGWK

B1: scFv 14 (scFv)
scFv: QSVLNQPPSVSAALGQRITISCTGSHTNIGSGYDVQWYQQLPGKSPRTIIYGNSDRPSGVPVRFSGSKSGNTATLTITGIQAEDEADYYCQSYDDNLNDPYVFGSGTQLTVLGGGSSRSSSSGGGGSGGGGEVQLVQSGGDLVKPGGSLRLSCVASGFAFSGKTMQWVRQAPGKGLQWVAYIQHDGSRTSYADAVKGRFTISRDNAKNTLYLQMDSLRAEDTAVYYCADHPWYGPEYWGQGTPVTVSSESPSPPNLTSGQAGQHHHHHHGAYPYDVPDYAS
notes: Canine scFv (VL-linker-VH); also called P3-58
B2: scFv 17 (scFv)
scFv: QPVLTQPPSVSAALGQRVTISCTGSKTNIGSGYDVQWYQQLPGKSPKTIIYGNSNRPSGVPARFSGSKSGSIATLTITGIQAEDEADYYCQSFDDNVDGYVFGSGTQLTILGGGSSRSSSSGGGGSGGGGEVPLVESGGDLVKPGGSLRLSCVASGFTFSSYGMSWVRQAPGKGLQWVAYINGGGSSTSYADAVRGRFTISRDNAENTLYLQMNSLRADDTAVYYCSNYYGIYWDSDYWGQGTLVTVSSESPSPPNLTSGQAGQHHHHHHGAYPYDVPDYAS
notes: Canine scFv (VL-linker-VH); also called P4-05A; P4-05B
B3: scFv 12 (scFv)
scFv: SYELTQPPSATVTLRQTARLTCGGENIGRKSVQWYQQKPGQSPLLIIYADSSRPSGIPERFSGANSGNTASLTISGALAEDEADYYCQIWDRNINVFGSGTQLTVLGGGSSRSSSSGGGGSGGGGEEQLVEFGGDLVKPAGSLRLSCVASGFTFSSYDMSWVRQAPGKGLQWVATISYDGSSTYYTDAVKGRFTVSRDNAKNTLYLQMNSLRAEDTALYYCAKDSGSWSHFYGLDTWGHGTSVFVSSASTTAPSVTSGQAGQHHHHHHGAYPYDVPDYAS
notes: Canine scFv (VL-linker-VH); also called P3-48
B4: scFv 10 (scFv)
scFv: QAVLNQPASVSGALGQTVTISCSGSHTNIGSGFDVQWYQQLPGKSPQTIIYANINRPSGVPARFSGSKSGSTATLTITGVQAEDEADYHCQSFDDDLDGPVFGGGTHLTVLGGGSSRSSSSGGGGSGGGGEVQLVQSGGDLVKPGGSLKISCVASGLTFNRNYMTWIRQAPGKGLQWVSEINPDGSTTSYTDAVRGRFTISRDNAKNTLYLQMNSMRDEDTAVYYCARSSWGSFDYWGQGTLVTVSSASTTAPSVTSGQAGQHHHHHHGAYPYDVPDYAS
notes: Canine scFv (VL-linker-VH); also called P3-01
B5: scFv 18 (scFv)
scFv: QSALTQTASVSGSLGQKVTISCTGSRSNIGANYVGWYQQVPGIGPRTVIFGYNYRPSGVPDRFSSSKSGNSATLTISGLQAEDEAEYYCSTWDSSLNAYVFGSGTQLTVLGGGSSRSSSSGGGGSGGGGEVPLVESGGDLVKPGGSLRLSCVASGFTLSNYGMSWVRQSPGKGLQWVAAIRSGGNTYYADAVKGRFTISRDNAKNTLYLQMNSLRAEDTAVYYCASQWGDWGHFEYWGQGTLVTVSSASTTAPSVTSGQAGQHHHHHHGAYPYDVPDYAS
notes: Canine scFv (VL-linker-VH); also called P4-12
B6: scFv 16 (scFv)
scFv: QSVLTQPTSVSGSLGQRVTISCTGSSSNVGYGNYVGWYQQLPGTGPRTLIYGSHYRPSGVPDRFSGSSSGSSATLTISGLQAEDEADYYCSSYDSTLSGYVFGSGTQLTILGGGSSRSSSSGGGGSGGGGEVQLVESGGDLVKPGGSLRLSCVGSGFTLSSYWMSWVRQAPGKGLQWIAEISGSGNTIYYGDAVKGRFTISRDNAKNTLYLQMNSLRDEDTAVYYCATEYYWNIDNWGQGTLVTVSSESPFPPNLTSGQAGQHHHHHHGAYPYDVPDYAS
notes: Canine scFv (VL-linker-VH); also called P3-33; P4-01
B7: scFv 20 (scFv)
scFv: QSVLNQPPSVSVSLGQTATISCSGESLSKYYAQWFQQKAGQVPVLVIYKDTERPSGIPDRFSGSSSGNTHTLTISGARAEDEADYYCESEVSPDTIVFGGGTHLTVLGGGSSRSSSSGGGGSGGGGEVQLVESGGDLVKPGGSLRLSCVASGFTFSSYAMSWVRQAPGEGLQWVAYINSAGSTTYYADAVKGRFTISRDNARNTVYLQMNSLRAEDTAVYYCGRYYYGLDYWGPGTSVFVSSESPSPPNLTSGQAGQHHHHHHGAYPYDVPDYAS
notes: Canine scFv (VL-linker-VH); also called P3-12
B8: scFv 19 (scFv)
scFv: QAVLTQPASVSGPLGQRVTISCSGSTNNIGIVGAAWYQQFPGKAPKLLVYSDGSRPSGVPDRFSGSNSGNSATLTISGLQAEDEADYYCQSVDATHGTILFGGGTQLTVLGGGSSRSSSSGGGGSGGGGEVQLVETGGDLVKPAGSLRLSCAASGFPFSGYSMTWVRQAPEKGLQLVAGINSDGSHTYYTDDVKGRFTVSRDNTKYILYLQMNSLRVEDTAIYYCGSHSWGNFHYWGQGTLVTVSSESPSPPNLTSGQAGQHHHHHHGAYPYDVPDYAS
notes: Canine scFv (VL-linker-VH); also called P3-35
B9: scFv 2 (scFv)
scFv: SYVLTQSPSLSGSLGQKVTISCTGSRSNLGGNYVGWYQQVPGMAPRNVIYANDFRPSRIPARFSASKSGTSATLTISGLQAEDEADYFCSSWDDDLGSHVFGSGTQLTILGGGSSRSSSSGGGGSGGGGEEQLVEFGGDLVKPGGSLRLSCVASGFSFSSYDMSWVRQAPGKGLQWVASTNFDGSRTYYTDAVEGRFTISRDNARNTVYLQMNSLRAEDTAVYYCARGMGSWGASTFGYWGQGTLVTVSSASTTAPSVTSGQAGQHHHHHHGAYPYDVPDYAS
notes: Canine scFv (VL-linker-VH); also called scFv_02; P3-21
B10: scFv 13 (scFv)
scFv: QPVLTQPPSVSGALGQTVTISCSGSHTNIGSGFDVQWYQQLPGKSPQTLVYANINRPSGVPARFSGSKSGSTATLTITGVQAEDEADYYCQSYDDNFDYVFGSGTQLTVLGGGSSRSSSSGDGGSGGGGEVQLVESGGGLMKPGGSLKLSCLASGFTFSRYYMYWVRQAPGKGLQWVAQISSDGRRTYYADAVQGRFTISRDNVKNTVYLQMNSLSDEDTAVYYCVREDYFDFDYWGQGTLVTVSSASTTAPSVTSGQAGQHHHHHHGAYPYDVPDYAS
notes: Canine scFv (VL-linker-VH); also called P3-36; P3-38
B11: scFv 1 (scFv)
scFv: QAVLNQPASVSAALGQRVTISCNTNIGSPYDVQWYQQLPGKSPKTIIYGNSNRPSGVPVRFSGSKSGSTATLTIAGIQAEDEADYYCQSYDDSLDGRVVFGGGTQLTVLGGGSSRSSSSGGGGSGGGGEVQLVESGGDLVKPGGSLRLSCVASGFTFSNHEMYWVRQAPGKGLEWVARIYDSGSRTRYADAVKGRFTISRDNAKNTLYLQMNSLTAEDTAVYFCAGGNSRGWTEFGMDYWGPGTLVTVSSASTTAPSVTSGQAGQHHHHHHGAYPYDVPDYAS
notes: Canine scFv (VL-linker-VH); also called scFv_01; P3-15
B12: scFv 11 (scFv)
scFv: QPVLTQPPSVSGALGQTVTISCSGSHTNIGSGFDVQWYQQLPGKSPQTLVYANINRPSGVPARFSGSKSGSTATLTITGVQAEDEADYYCQSYDDNFDYVFGSGTQLTVLGGGSSRSSSSGGGGSGGGGEVQLVESGGDLVKPGGSLRLSCVASGFTFSDYSMSWVRQSPGKGLQWVAAIMTSGSTYYADAVKGRFTISRDNAKNTLYLQMDSLRAEDTAVYYCAHDYWFDFWGQGTLVTVSSASTTAPSVTSGQAGQHHHHHHGAYPYDVPDYAS
notes: Canine scFv (VL-linker-VH); also called P3-57
B13: scFv 15 (scFv)
scFv: SYELTQPPSVSAALGQGVTISCIGSDTNIGNHYDVQWYQQLPGKSPRTIIYGNSDRPSGVPGRFSGSKSGNTATLTITGIQAEDEADYHCQSYDDDLDGHIVFGGGTHLTVLGGGSSRSSSSGGGGSGGGGEVQLVQSGGDLVKPGGSLRLSCVASGFTFNKYHMSWVRQAPGKGLQWVGKITSDGSATGYADAVKGRFTISRDNAKNTFYLQMDSLRAEDTAMYYCARDQSSWGTGNFDYWGQGTLVTVSSASTTAPSVTSGQAGQHHHHHHGAYPYDVPDYAS
notes: Canine scFv (VL-linker-VH); also called P3-59A

These binders were tested against T1, human CD19 protein with a biotinylated … (assay: phage ELISA, biotinylated AviTag CD19 on streptavidin wells; signal ratio to FMC63 standard).
Excerpt: To identify unique human CD19-binding monoclonal scFv from the panned libraries, individual phage antibody clones were expanded, assessed for binding to CD19 by ELISA, and subjected to nucleotide sequencing to identify those clones that were unique. A total of 84 scFvs were randomly selected from the panned libraries (70 from P3 and 14 from P4).

Binder	ELISA hCD19 (ratio FMC63)
B1	0.59 ratio to FMC63
B2	0.66 ratio to FMC63
B3	0.16 ratio to FMC63
B4	0.77 ratio to FMC63
B5	0.27 ratio to FMC63
B6	0.41 ratio to FMC63
B7	0.47 ratio to FMC63
B8	0.26 ratio to FMC63
B9	0.49 ratio to FMC63
B10	0.28 ratio to FMC63
B11	0.84 ratio to FMC63
B12	0.31 ratio to FMC63
B13	0.99 ratio to FMC63
